Substitutions are numbered along the chain they refer to. Numbers in names are those of the source. Values belong to the binder of their own block, whether it stands above or below them.
Legend:
CHC(1–364) = molecular target: T1, CHC(1–364) (UniProt Q00610 1-364); assay: crystal structure
T1 sequence (looked up): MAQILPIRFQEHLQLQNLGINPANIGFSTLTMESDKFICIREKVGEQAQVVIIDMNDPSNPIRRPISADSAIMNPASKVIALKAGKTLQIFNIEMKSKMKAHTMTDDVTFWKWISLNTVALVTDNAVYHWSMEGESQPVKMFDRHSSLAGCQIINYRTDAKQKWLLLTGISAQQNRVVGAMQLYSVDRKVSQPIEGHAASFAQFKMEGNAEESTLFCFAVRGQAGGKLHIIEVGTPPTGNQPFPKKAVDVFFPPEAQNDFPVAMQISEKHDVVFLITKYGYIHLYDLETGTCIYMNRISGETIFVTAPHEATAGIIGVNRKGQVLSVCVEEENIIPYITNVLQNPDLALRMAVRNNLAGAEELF

[1] = molecular target: T2, GTSE1 (purified recombinant) (human, UniProt Q9NYZ3 1-739); assay: pull-down
T2 sequence (looked up): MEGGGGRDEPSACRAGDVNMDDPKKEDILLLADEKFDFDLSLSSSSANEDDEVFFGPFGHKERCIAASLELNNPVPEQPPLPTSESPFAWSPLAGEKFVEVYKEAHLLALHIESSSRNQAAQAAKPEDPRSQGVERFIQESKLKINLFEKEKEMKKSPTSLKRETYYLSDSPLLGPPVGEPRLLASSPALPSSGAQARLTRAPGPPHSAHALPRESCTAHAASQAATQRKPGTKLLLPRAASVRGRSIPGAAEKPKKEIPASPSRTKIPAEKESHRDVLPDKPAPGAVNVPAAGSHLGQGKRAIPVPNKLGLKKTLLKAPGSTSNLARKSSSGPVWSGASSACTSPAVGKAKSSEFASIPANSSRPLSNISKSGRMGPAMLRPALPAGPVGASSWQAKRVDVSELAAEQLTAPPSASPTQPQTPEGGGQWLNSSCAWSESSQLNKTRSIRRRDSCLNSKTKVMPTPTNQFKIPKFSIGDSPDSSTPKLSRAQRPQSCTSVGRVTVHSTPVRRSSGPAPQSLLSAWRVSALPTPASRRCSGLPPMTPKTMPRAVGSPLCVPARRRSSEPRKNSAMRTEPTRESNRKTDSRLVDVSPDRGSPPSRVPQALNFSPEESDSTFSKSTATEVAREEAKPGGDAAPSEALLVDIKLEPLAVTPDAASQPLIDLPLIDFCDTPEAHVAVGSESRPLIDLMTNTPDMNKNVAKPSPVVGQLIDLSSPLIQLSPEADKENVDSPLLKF

GTSE1-GFP (purified) = molecular target: T3, GTSE1-GFP (purified) (human, UniProt Q9NYZ3 1-739); assay: pull-down
T3 sequence (looked up): T2 sequence (looked up)

CHC(1–642)-6xHis = molecular target: T4, CHC(1–642)-6xHis (UniProt Q00610 1-642); assay: pull-down
T4 sequence (looked up): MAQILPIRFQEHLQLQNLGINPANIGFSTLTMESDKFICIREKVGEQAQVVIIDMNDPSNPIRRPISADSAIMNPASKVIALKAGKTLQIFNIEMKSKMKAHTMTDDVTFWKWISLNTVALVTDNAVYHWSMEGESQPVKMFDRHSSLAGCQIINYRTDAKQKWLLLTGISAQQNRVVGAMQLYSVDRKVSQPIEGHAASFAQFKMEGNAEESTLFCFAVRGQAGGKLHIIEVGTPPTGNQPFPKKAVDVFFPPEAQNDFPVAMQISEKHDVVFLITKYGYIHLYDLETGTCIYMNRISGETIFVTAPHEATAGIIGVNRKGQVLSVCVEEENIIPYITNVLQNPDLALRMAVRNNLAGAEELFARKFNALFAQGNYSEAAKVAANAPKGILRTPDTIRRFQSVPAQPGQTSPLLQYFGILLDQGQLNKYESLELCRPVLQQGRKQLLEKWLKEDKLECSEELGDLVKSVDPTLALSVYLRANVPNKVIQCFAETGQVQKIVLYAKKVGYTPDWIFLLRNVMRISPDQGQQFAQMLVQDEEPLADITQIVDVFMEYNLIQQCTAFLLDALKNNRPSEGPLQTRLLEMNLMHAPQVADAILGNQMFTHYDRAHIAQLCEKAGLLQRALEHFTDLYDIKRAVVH

B1: GTSE1-C5 (domain or fragment, human)
chain: GPLGSLAVTPDAASQPLIDLPLIDFCDTPEAHVAVGSESRPLIDLMTNTPDMNKNVAKPSPVVGQLIDLSSP
binding result (CHC(1–364)): binds

B4: GST-GTSE1-C3 (domain or fragment, human, UniProt Q9NYZ3 693-739, looked up)
chain: MTNTPDMNKNVAKPSPVVGQLIDLSSPLIQLSPEADKENVDSPLLKF
binding result (CHC(1–642)-6xHis): binds

B5: GST-GTSE1-C3 motif E mutant (domain or fragment, human, UniProt Q9NYZ3 693-739, looked up)
chain: B4 chain with L28A, I29A, Q30A
binding result (CHC(1–642)-6xHis): binds

B7: GST-GTSE1-C1 (domain or fragment, human, UniProt Q9NYZ3 652-687, looked up)
chain: PLAVTPDAASQPLIDLPLIDFCDTPEAHVAVGSESR
binding result (CHC(1–642)-6xHis): binds

The next lines start with the values.

binding result [1]: binds
binding result (GTSE1-GFP (purified)): binds
B2: GST-CHC(1–330) (domain or fragment, UniProt Q00610 1-330, looked up)
chain: MAQILPIRFQEHLQLQNLGINPANIGFSTLTMESDKFICIREKVGEQAQVVIIDMNDPSNPIRRPISADSAIMNPASKVIALKAGKTLQIFNIEMKSKMKAHTMTDDVTFWKWISLNTVALVTDNAVYHWSMEGESQPVKMFDRHSSLAGCQIINYRTDAKQKWLLLTGISAQQNRVVGAMQLYSVDRKVSQPIEGHAASFAQFKMEGNAEESTLFCFAVRGQAGGKLHIIEVGTPPTGNQPFPKKAVDVFFPPEAQNDFPVAMQISEKHDVVFLITKYGYIHLYDLETGTCIYMNRISGETIFVTAPHEATAGIIGVNRKGQVLSVCVE

binding result [1]: binds
B3: GST-CHC(1–330) S2M (domain or fragment, UniProt Q00610 1-330, looked up)
chain: B2 chain with Q152L, I154Q

binding result (CHC(1–364)): binds
B6: GTSE1-C4 (domain or fragment, human)
chain: GPLGSQPLIDLPLIDFCDTPEAHVAVGSESRPLIDLMTNTPDMNKNVAKPSPVVGQLIDLSSPLIQLSPE
